Results taken from patent publication US10562936B2, “Ligands for integrin αvβ6, synthesis and uses thereof” (Technische Universitat Munchen, priority 2015, dated 2020).
Square brackets hold non-standard residues; d marks the D form. NMeK = CN[C@@H](CCCCN)C(=O)O; Sar = CNCC(=O)O

B1: Compound 13, cyclic peptide A R G D L A L p Sar (peptide)
peptide: cyclo(ARGDLAL[dP][Sar])
SMILES: CC(C)C[C@@H]1NC(=O)[C@H](CC(=O)O)NC(=O)CNC(=O)[C@H](CCCNC(=N)N)NC(=O)[C@H](C)NC(=O)CN(C)C(=O)[C@H]2CCCN2C(=O)[C@H](CC(C)C)NC(=O)[C@H](C)NC1=O
B2: Compound 15, cyclic peptide A R G D L A L p (NMe)K (peptide)
peptide: cyclo(ARGDLAL[dP][NMeK])
SMILES: CC(C)C[C@@H]1NC(=O)[C@H](CC(=O)O)NC(=O)CNC(=O)[C@H](CCCNC(=N)N)NC(=O)[C@H](C)NC(=O)[C@H](CCCCN)N(C)C(=O)[C@H]2CCCN2C(=O)[C@H](CC(C)C)NC(=O)[C@H](C)NC1=O
B3: Compound 17, cyclic peptide A R G D L A F p (NMe)K (peptide)
peptide: cyclo(ARGDLAF[dP][NMeK])
SMILES: CC(C)C[C@@H]1NC(=O)[C@H](CC(=O)O)NC(=O)CNC(=O)[C@H](CCCNC(=N)N)NC(=O)[C@H](C)NC(=O)[C@H](CCCCN)N(C)C(=O)[C@H]2CCCN2C(=O)[C@H](Cc2ccccc2)NC(=O)[C@H](C)NC1=O
B4: Compound 22, cyclic peptide W R G D L A F p (NMe)K (peptide)
peptide: cyclo(WRGDLAF[dP][NMeK])
SMILES: CC(C)C[C@@H]1NC(=O)[C@H](CC(=O)O)NC(=O)CNC(=O)[C@H](CCCNC(=N)N)NC(=O)[C@H](Cc2c[nH]c3ccccc23)NC(=O)[C@H](CCCCN)N(C)C(=O)[C@H]2CCCN2C(=O)[C@H](Cc2ccccc2)NC(=O)[C@H](C)NC1=O
B5: Compound 20, cyclic peptide F R G D L A W p (NMe)K (peptide)
peptide: cyclo(FRGDLAW[dP][NMeK])
SMILES: CC(C)C[C@@H]1NC(=O)[C@H](CC(=O)O)NC(=O)CNC(=O)[C@H](CCCNC(=N)N)NC(=O)[C@H](Cc2ccccc2)NC(=O)[C@H](CCCCN)N(C)C(=O)[C@H]2CCCN2C(=O)[C@H](Cc2c[nH]c3ccccc23)NC(=O)[C@H](C)NC1=O
B6: Compound 5, cyclic peptide A R G D L L p P (peptide)
peptide: cyclo(ARGDLL[dP]P)
SMILES: CC(C)C[C@@H]1NC(=O)[C@H](CC(=O)O)NC(=O)CNC(=O)[C@H](CCCNC(=N)N)NC(=O)[C@H](C)NC(=O)[C@@H]2CCCN2C(=O)[C@H]2CCCN2C(=O)[C@H](CC(C)C)NC1=O
notes: Comparative compound (*)
B7: Compound 6, cyclic peptide A R G D L p P (peptide)
peptide: cyclo(ARGDL[dP]P)
SMILES: CC(C)C[C@@H]1NC(=O)[C@H](CC(=O)O)NC(=O)CNC(=O)[C@H](CCCNC(=N)N)NC(=O)[C@H](C)NC(=O)[C@@H]2CCCN2C(=O)[C@H]2CCCN2C1=O
notes: Comparative compound (*)
B8: Compound 14, cyclic peptide A R G D L A L Sar P (peptide)
peptide: cyclo(ARGDLAL[Sar]P)
SMILES: CC(C)C[C@@H]1NC(=O)[C@H](CC(=O)O)NC(=O)CNC(=O)[C@H](CCCNC(=N)N)NC(=O)[C@H](C)NC(=O)[C@@H]2CCCN2C(=O)CN(C)C(=O)[C@H](CC(C)C)NC(=O)[C@H](C)NC1=O
notes: Comparative compound (*)
B9: Compound 2, cyclic peptide A R G D A A A L p P (peptide)
peptide: cyclo(ARGDAAAL[dP]P)
SMILES: CC(C)C[C@@H]1NC(=O)[C@H](C)NC(=O)[C@H](C)NC(=O)[C@H](C)NC(=O)[C@H](CC(=O)O)NC(=O)CNC(=O)[C@H](CCCNC(=N)N)NC(=O)[C@H](C)NC(=O)[C@@H]2CCCN2C(=O)[C@H]2CCCN2C1=O
notes: Comparative compound (*)
B10: Compound 3, cyclic peptide A R G D L A A A p P (peptide)
peptide: cyclo(ARGDLAAA[dP]P)
SMILES: CC(C)C[C@@H]1NC(=O)[C@H](CC(=O)O)NC(=O)CNC(=O)[C@H](CCCNC(=N)N)NC(=O)[C@H](C)NC(=O)[C@@H]2CCCN2C(=O)[C@H]2CCCN2C(=O)[C@H](C)NC(=O)[C@H](C)NC(=O)[C@H](C)NC1=O
notes: Comparative compound (*)

Legend:
[1] = molecular target: T1, integrin αvβ6 (soluble integrin) (UniProt P06756 31-992; P18564 22-707); test: solid-phase binding assay, competition; coated LAP, soluble αvβ6
T1 construct: Only 'soluble integrins' is said

[2] = molecular target: T2, integrin αvβ3 (soluble integrin) (UniProt P06756 31-992; P05106 27-718); test: solid-phase binding assay, competition; coated vitronectin, soluble αvβ3
T2 construct: Only 'soluble integrins' is said
T2 sequence (P06756 31-992, chain 1 of 2): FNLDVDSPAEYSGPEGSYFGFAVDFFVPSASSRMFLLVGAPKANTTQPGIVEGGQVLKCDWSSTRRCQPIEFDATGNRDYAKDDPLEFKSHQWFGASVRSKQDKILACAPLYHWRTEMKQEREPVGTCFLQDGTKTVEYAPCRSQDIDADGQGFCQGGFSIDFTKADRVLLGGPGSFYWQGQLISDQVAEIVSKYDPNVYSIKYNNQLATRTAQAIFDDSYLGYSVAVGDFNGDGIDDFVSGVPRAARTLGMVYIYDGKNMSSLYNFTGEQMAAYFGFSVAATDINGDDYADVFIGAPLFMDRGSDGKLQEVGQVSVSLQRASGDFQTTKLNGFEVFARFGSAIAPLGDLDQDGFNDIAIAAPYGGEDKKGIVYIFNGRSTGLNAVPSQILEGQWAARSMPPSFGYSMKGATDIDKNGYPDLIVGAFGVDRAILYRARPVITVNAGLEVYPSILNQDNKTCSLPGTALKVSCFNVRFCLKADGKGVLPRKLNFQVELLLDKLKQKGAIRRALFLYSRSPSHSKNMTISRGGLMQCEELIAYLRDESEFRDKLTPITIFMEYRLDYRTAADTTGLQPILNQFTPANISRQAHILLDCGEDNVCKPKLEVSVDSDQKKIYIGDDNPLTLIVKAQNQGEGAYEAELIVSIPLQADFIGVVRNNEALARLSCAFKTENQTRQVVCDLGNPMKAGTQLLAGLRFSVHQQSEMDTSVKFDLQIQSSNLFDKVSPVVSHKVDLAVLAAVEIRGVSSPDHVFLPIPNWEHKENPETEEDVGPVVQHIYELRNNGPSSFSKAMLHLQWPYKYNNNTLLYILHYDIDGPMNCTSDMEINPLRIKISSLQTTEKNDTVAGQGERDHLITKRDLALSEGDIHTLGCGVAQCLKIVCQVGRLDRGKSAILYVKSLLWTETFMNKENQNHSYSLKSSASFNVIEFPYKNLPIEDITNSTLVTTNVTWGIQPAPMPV
T2 sequence (P05106 27-718, chain 2 of 2): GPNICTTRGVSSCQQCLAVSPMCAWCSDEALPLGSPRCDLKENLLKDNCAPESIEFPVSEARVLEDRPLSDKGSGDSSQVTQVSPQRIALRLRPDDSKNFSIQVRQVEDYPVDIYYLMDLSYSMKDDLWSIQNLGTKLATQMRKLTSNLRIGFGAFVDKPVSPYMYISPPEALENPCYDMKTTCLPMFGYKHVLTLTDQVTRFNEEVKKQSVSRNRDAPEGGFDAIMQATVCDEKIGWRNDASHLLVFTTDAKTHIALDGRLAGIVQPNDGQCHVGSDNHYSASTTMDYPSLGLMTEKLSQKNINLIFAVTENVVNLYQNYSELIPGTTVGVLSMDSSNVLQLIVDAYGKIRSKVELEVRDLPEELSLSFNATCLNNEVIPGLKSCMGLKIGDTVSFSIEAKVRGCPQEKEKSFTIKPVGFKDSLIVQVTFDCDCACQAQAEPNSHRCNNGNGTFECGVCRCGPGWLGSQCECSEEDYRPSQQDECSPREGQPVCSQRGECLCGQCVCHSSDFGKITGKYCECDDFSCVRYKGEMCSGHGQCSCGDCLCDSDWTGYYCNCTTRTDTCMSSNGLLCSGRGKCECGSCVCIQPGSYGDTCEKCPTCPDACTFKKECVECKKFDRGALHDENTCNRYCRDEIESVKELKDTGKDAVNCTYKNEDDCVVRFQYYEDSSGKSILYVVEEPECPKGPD

T1 sequence (P06756 31-992, chain 1 of 2): as the sequence (P06756 31-992, chain 1 of 2) above
T1 sequence (P18564 22-707, chain 2 of 2): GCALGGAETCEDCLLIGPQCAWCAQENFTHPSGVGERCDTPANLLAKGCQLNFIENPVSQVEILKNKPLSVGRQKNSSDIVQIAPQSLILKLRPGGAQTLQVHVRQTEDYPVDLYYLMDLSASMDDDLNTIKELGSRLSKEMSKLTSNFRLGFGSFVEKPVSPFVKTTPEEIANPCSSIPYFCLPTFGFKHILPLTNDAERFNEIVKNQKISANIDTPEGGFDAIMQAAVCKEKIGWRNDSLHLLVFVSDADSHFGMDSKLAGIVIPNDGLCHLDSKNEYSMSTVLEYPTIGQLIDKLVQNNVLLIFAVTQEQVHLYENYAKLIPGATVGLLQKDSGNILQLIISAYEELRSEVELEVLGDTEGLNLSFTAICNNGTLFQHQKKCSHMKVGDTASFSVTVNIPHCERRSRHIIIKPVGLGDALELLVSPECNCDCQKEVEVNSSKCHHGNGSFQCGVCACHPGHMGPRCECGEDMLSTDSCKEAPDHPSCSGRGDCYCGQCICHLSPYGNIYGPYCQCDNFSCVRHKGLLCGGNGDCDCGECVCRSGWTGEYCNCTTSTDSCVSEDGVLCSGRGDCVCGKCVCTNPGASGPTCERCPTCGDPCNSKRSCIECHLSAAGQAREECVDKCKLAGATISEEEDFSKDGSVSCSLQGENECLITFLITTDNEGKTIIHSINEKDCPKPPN

Row | Binder | IC50 [1] | IC50 [2]
1 | B1 | 8.1 nM | 87.7 nM
2 | FRGDLAYXX (head-to-tail cyclic; D-Pro (p) at position 8; N-methyl-Lys at position 9) [Compound 19, cyclic peptide F R G D L A Y p (NMe)K] | 0.39 nM | 685 nM
3 | B2 | 4.3 nM | 415 nM
4 | B3 | 0.7 nM | 143 nM
5 | B4 |  | 645 nM
6 | B5 | 0.12 nM | 204 nM
7 | YRGDLAFXX (head-to-tail cyclic; D-Pro (p) at position 8; N-methyl-Lys at position 9) [Compound 21, cyclic peptide Y R G D L A F p (NMe)K] | 0.4 nM | 432 nM
8 | B6 | 292 nM | 
9 | B7 | 417 nM | 
10 | B8 | 24.2 nM | 85.1 nM
11 | B9 | 320 nM | 
12 | B10 | 15.4 nM | 
